{"source": "paper PMC7277169", "about": "“C-Methylation of S-adenosyl-L-Methionine Occurs Prior to Cyclopropanation in the Biosynthesis of 1-Amino-2-Methylcyclopropanecarboxylic Acid (Norcoronamic Acid) in a Bacterium” (Biomolecules, 2020)", "system": "T1, C[S+](CC[C@H](N)C(=O)O)C[C@H]1O[C@@H](n2cnc3c(N)ncnc32)[C@H](O)[C@@H]1O", "T1 construct": "C-terminal 8xHis tag kept; expressed in Streptomyces lividans TK23; Ni-NTA purified; homodimer", "assay": "HPLC-HR-ESI-MS of APDS-derivatized ACC; Michaelis-Menten fit", "format": "biochemical, Streptomyces violaceusniger", "details": "50 mM sodium phosphate pH 8.0, 30 °C, 60 min, PLP enzyme, unit typeset as 'mm' in text", "data": [{"substance": "rOrf30 (Orf30) (Streptomyces violaceusniger)", "values": [{"measurement": "Km", "result": "1090 ± 330", "unit": "µM"}, {"measurement": "kcat", "result": "0.0049 ± 0.00068", "unit": "s⁻¹"}]}]}
